Test results: patent US7271238

B1: 25,28,29Pro-h-Amylin (peptide)
peptide: KCNTATCATQRLANFLVHSSNNFGPILPPTNVGSNTY
modifications: 2,7-disulfide; made on methylbenzhydrylamine resin (C-terminal amide not spelled out)

Biological target: amylin receptors (rat basal forebrain membranes, containing the nucleus accumbens and surrounding regions) (rat)
Assay: competition radioligand binding, displacement of 125I-rat amylin from rat basal forebrain membranes

IC50 [nM] | Molecule
0.015 | 28Pro-human-Amylin (peptide)
0.01 | B1
